Measurements: US20240216484A1

Biological target: SARS-CoV-2 spike protein, extracellular domain (1-1213), recombinant from HEK293 cells (SARS-CoV-2) (UniProt P0DTC2)

## HZI 2-09 (Anlec in TBS; lectin batch isolated from bromelain)
  Kd: 8.25 µM
  koff: 0.003 s⁻¹
  kon: 331 M⁻¹ s⁻¹
